Measurements: patent US10260060B2, “Genetically modified phenylpyruvate decarboxylase, processes to prepare, and uses thereof” (Dow Global Technologies LLC, priority 2014, dated 2019)
Substitutions are numbered along the chain they refer to. Names may count otherwise.

How the values were obtained:
Assay type in all cases: biochemical, Azospirillum brasilense
[1] = substrate: CCCCCCC(=O)C(=O)O; assay: HTP AbPPDC coupled enzyme assay (ADH6/NADPH), 2-ketoacid decarboxylation kinetics, Q536L; conditions: other: pH 6.8, 30° C, 2-ketoacid 0 to 4 mM, Michaelis-Menten equation, mean ± standard error
Method: (§1) The evaluation of the AbPPDC variants is performed in two steps using the high-throughput enzyme assay described hereinbelow. Initially, all the variants are tested for activity against a single high concentration (2 mM) of 2-KH and 2-KN (as shown in Table 1). Following the initial evaluation, detailed kinetic analysis is performed on a select number of variants to determine the maximal rate (kcat), substrate concentration yielding half maximal rate (K0.5, equivalent of KM for enzymes following Michaelis-Menten kinetics), and the catalytic efficiency of the enzyme (kcat/K0.5) against 2-KO and 2-KN (as shown in Table 2). AbPPDC variants, having higher specificity (higher kcat/K0.5) for 2-KN, will be efficient in producing octanal and chemicals derived from it inside the cells.
(§2) To evaluate the substrate specificity of the wild type AbPPDC and its variants listed in Table 1, genes of all the proteins are expressed in E. coli cells separately and the protein products are isolated from the cells. The gene sequence of the Azospirillum brasilense phenylpyruvate decarboxylase (GenBank: Accession no. L26240) is downloaded from the NCBI database. Codons of 13 additional amino acids that include six (6) histidines (his) are added upstream of the Met-1 codon of the AbPPDC gene sequence. Such a modification allows expression of a Histidine-tagged AbPPDC having 13 additional amino acids on the N-terminus. The additional amino acids are attached as an aid for purifying the protein in a single step using Ni-NTA chromatography. The entire AbPPDC sequence with 13 additional amino acids (SEQ ID 2) is chemically synthesized and then cloned into the pRSFDuet-1 vector (EMD Biosciences) downstream of the T7 polymerase promoter by Synthetic Genomics, Inc. (San Diego, Calif.). The final vector is sequenced by Synthetic Genomics, Inc. before shipping.
(§3) Genes of the AbPPDC variants listed in Table 1 are either chemically synthesized or generated using New England Biolab's Q5 Site-directed Mutagenesis Kit (cat. no. E0554S) and cloned into the pRSFDuet-1 vector. The pRSFDuet-1 vector containing AbPPDC or the AbPPDC variant gene is transformed into E. coli, AbPPDC or its variant, then expressed and eventually purified, as described below.
(§4) A high-throughput AbPPDC coupled enzyme assay is developed for evaluating the substrate specificity of AbPPDC variants. The assay involves reducing the aldehyde produced from AbPPDC mediated 2-ketoacid decarboxylation, using an alcohol dehydrogenase (ADH6, GenBank: Accession No. NP 014051.3). The initial velocities of the AbPPDC catalyzed reactions are determined from the rates of oxidation of reduced nicotinamide adenine dinucleotide phosphate (NADPH) occurring during the ADH6 catalyzed reduction of aldehyde.
(§5) The HTP screening assay involves incubating 2 mM 2-KH or 2 mM 2-KN with 0.5 mM thiamine diphosphate, 0.35 mM NADPH, 4.7 micrograms (μg) of yeast ADH6 (GenBank: Accession No. NP 014051.3) and 0.3 milligrams per milliliter (mg/mL) bovine serum albumin (BSA) in AbPPDC assay buffer (50 mM 3-(N-morpholino)propanesulfonic acid, pH 6.8, containing 2.5 mM magnesium chloride (MgCl2)) at 30° C. The reaction is started by addition at 30° C. of working enzyme stock containing from 0.5 μg to 3.5 μg of AbPPDC variant diluted in AbPPDC assay buffer containing 1 mg/mL BSA. The plate containing the 200 μL of reaction mixture is centrifuged at 2500×g for 15 sec and the absorbance change of the reaction mixture followed spectrophotometrically at 340 nm on a BioTek™ plate reader, pre-equilibrated at 30° C. Initial velocity of the enzyme reaction is calculated using the rate of NADPH consumption at 340 nm and the extinction coefficient of NADPH (6.22 mM^−1 cm^−1). The activity of all the variants is normalized with the amount of enzyme present in the reaction mixture and expressed as nanomoles per minute per milligram (nmol·min^−1·mg^−1). […]

[2] = substrate: CCCCCCCC(=O)C(=O)O; assay: as above; conditions: other: pH 6.8, 30° C, 2-ketoacid 0 to 4 mM, Michaelis-Menten equation, mean ± standard error
Method: as §1, §2, §3, §4, §5

[3] = substrate: CCCCCCC(=O)C(=O)O; assay: HTP AbPPDC coupled enzyme assay (ADH6/NADPH), 2-ketoacid decarboxylation kinetics, Q536I; conditions: other: pH 6.8, 30° C, 2-ketoacid 0 to 4 mM, Michaelis-Menten equation, mean ± standard error
Method: as §1, §2, §3, §4, §5

[4] = substrate: CCCCCCCC(=O)C(=O)O; assay: as above; conditions: other: pH 6.8, 30° C, 2-ketoacid 0 to 4 mM, Michaelis-Menten equation, mean ± standard error
Method: as §1, §2, §3, §4, §5

[5] = substrate: CCCCCCC(=O)C(=O)O; assay: HTP AbPPDC coupled enzyme assay (ADH6/NADPH), 2-ketoacid decarboxylation kinetics, wild type; conditions: other: pH 6.8, 30° C, 2-ketoacid 0 to 4 mM, Hill equation, mean ± standard error
Method: as §1, §2, §4
(§6) The HTP screening assay involves incubating 2 mM 2-KH or 2 mM 2-KN with 0.5 mM thiamine diphosphate, 0.35 mM NADPH, 4.7 micrograms (μg) of yeast ADH6 (GenBank: Accession No. NP 014051.3) and 0.3 milligrams per milliliter (mg/mL) bovine serum albumin (BSA) in AbPPDC assay buffer (50 mM 3-(N-morpholino)propanesulfonic acid, pH 6.8, containing 2.5 mM magnesium chloride (MgCl2)) at 30° C. The reaction is started by addition at 30° C. of working enzyme stock containing from 0.5 μg to 3.5 μg of AbPPDC variant diluted in AbPPDC assay buffer containing 1 mg/mL BSA. The plate containing the 200 μL of reaction mixture is centrifuged at 2500×g for 15 sec and the absorbance change of the reaction mixture followed spectrophotometrically at 340 nm on a BioTek™ plate reader, pre-equilibrated at 30° C. Initial velocity of the enzyme reaction is calculated using the rate of NADPH consumption at 340 nm and the extinction coefficient of NADPH (6.22 mM^−1 cm^−1). The activity of all the variants is normalized with the amount of enzyme present in the reaction mixture and expressed as nanomoles per minute per milligram (nmol·min^−1·mg^−1). Protein concentrations for normalizing the activities are determined using the 660 nm total protein assay kit from Pierce Biotechnology Inc., available from Thermo Fisher Scientific, Inc., using BSA as the standard.
(§7) The kinetic parameters of the decarboxylation of 2-ketooctanoate (2-KO) and 2-ketononanoate (2-KN) by AbPPDC and its variants are also determined using the same HTP AbPPDC coupled enzyme assay, except that the concentrations of 2-KO or 2-KN are varied from 0 to 4 mM. […]

[6] = substrate: CCCCCCCC(=O)C(=O)O; assay: as above; conditions: other: pH 6.8, 30° C, 2-ketoacid 0 to 4 mM, Hill equation, mean ± standard error
Method: as §1, §2, §4, §6, §7

[7] = substrate: CCCCCCC(=O)C(=O)O; assay: HTP AbPPDC coupled enzyme assay (ADH6/NADPH), 2-ketoacid decarboxylation kinetics, F385L; conditions: other: pH 6.8, 30° C, 2-ketoacid 0 to 4 mM, Hill equation, mean ± standard error
Method: as §1, §2, §3, §4, §5

[8] = substrate: CCCCCCCC(=O)C(=O)O; assay: as above; conditions: other: pH 6.8, 30° C, 2-ketoacid 0 to 4 mM, Hill equation, mean ± standard error
Method: as §1, §2, §3, §4, §5

[9] = substrate: CCCCCCC(=O)C(=O)O; assay: HTP AbPPDC coupled enzyme assay (ADH6/NADPH), 2-ketoacid decarboxylation kinetics, M461L; conditions: other: pH 6.8, 30° C, 2-ketoacid 0 to 4 mM, Hill equation, mean ± standard error
Method: as §1, §2, §3, §4, §5

[10] = substrate: CCCCCCCC(=O)C(=O)O; assay: as above; conditions: other: pH 6.8, 30° C, 2-ketoacid 0 to 4 mM, Hill equation, mean ± standard error
Method: as §1, §2, §3, §4, §5

B1: Azospirillum brasilense phenylpyruvate decarboxylase (AbPPDC) variant Q536L, SEQ ID 36 (Azospirillum brasilense; Q536L) (protein)
chain: MKLAEALLRALKDRGAQAMFGIPGDFALPFFKVAEETQILPLHTLSHEPAVGFAADAAARYSSTLGVAAVTYGAGAFNMVNAVAGAYAEKSPVVVISGAPGTTEGNAGLLLHHQGRTLDTQFQVFKEITVAQARLDDPAKAPAEIARVLGAARALSRPVYLEIPRNMVNAEVEPVGDDPAWPVDRDALAACADEVLAAMRSATSPVLMVCVEVRRYGLEAKVAELAQRLGVPVVTTFMGRGLLADAPTPPLGTYIGVAGDAEITRLVEESDGLFLLGAILSDTNFAVSQRKIDLRKTIHAFDRAVTLGYHTYADIPLAGLVDALLEGLPPSDRTTRGKEPHAYPTGLQADGEPIAPMDIARAVNDRVRAGQEPLLIAADMGDCLFTAMDMIDAGLMAPGYYAGMGFGVPAGIGAQCVSGGKRILTVVGDGAFQMTGWELGNCRRLGIDPIVILFNNASWEMLRTFQPESAFNDLDDWRFADMAAGMGGDGVRVRTRAELKAALDKAFATRGRFQLIEAMIPRGVLSDTLARFVQGLKRLHAAPRE
notes: made in house; host or cells: E. coli BL21(DE3)
K0.5 [1]: 1.34 ± 0.23 mM
kcat [1]: 0.45 ± 0.0283 s⁻¹
kcat/Km [1]: 350 ± 67 M⁻¹ s⁻¹
K0.5 [2]: 1.51 ± 0.26 mM
kcat [2]: 1.38 ± 0.1 s⁻¹
kcat/Km [2]: 933 ± 183 M⁻¹ s⁻¹

B2: Azospirillum brasilense phenylpyruvate decarboxylase (AbPPDC) variant Q536I, SEQ ID 38 (Azospirillum brasilense; Q536I) (protein)
chain: B1 chain with L536I
notes: as for B1
K0.5 [3]: 0.71 ± 0.07 mM
kcat [3]: 0.533 ± 0.0183 s⁻¹
kcat/Km [3]: 750 ± 83 M⁻¹ s⁻¹
K0.5 [4]: 0.69 ± 0.09 mM
kcat [4]: 1.05 ± 0.05 s⁻¹
kcat/Km [4]: 1530 ± 217 M⁻¹ s⁻¹

B3: Azospirillum brasilense phenylpyruvate decarboxylase (AbPPDC), wild type, SEQ ID 4 (GenBank L26240), 13-amino acid N-terminal histidine tag (Azospirillum … (protein)
chain: B1 chain with L536Q
notes: as for B1
K0.5 [5]: 1.7 ± 0.1 mM
kcat [5]: 0.25 ± 0.012 s⁻¹
kcat/Km [5]: 150 ± 12 M⁻¹ s⁻¹
K0.5 [6]: 1.23 ± 0.02 mM
kcat [6]: 0.333 ± 0 s⁻¹
kcat/Km [6]: 270 ± 6.7 M⁻¹ s⁻¹

B4: Azospirillum brasilense phenylpyruvate decarboxylase (AbPPDC) variant F385L, SEQ ID 8 (Azospirillum brasilense; F385L) (protein)
chain: B1 chain with F385L, L536Q
notes: as for B1
K0.5 [7]: 2.3 ± 0.5 mM
kcat [7]: 0.0283 ± 0.005 s⁻¹
kcat/Km [7]: 13 ± 3.3 M⁻¹ s⁻¹
K0.5 [8]: 2.39 ± 0.26 mM
kcat [8]: 0.283 ± 0.017 s⁻¹
kcat/Km [8]: 117 ± 16.7 M⁻¹ s⁻¹

B5: Azospirillum brasilense phenylpyruvate decarboxylase (AbPPDC) variant M461L, SEQ ID 18 (Azospirillum brasilense; M461L) (protein)
chain: B1 chain with M461L, L536Q
notes: as for B1
K0.5 [9]: 1.4 ± 0.1 mM
kcat [9]: 0.2 ± 0.0083 s⁻¹
kcat/Km [9]: 148 ± 12 M⁻¹ s⁻¹
K0.5 [10]: 0.97 ± 0.04 mM
kcat [10]: 0.467 ± 0.017 s⁻¹
kcat/Km [10]: 483 ± 23.3 M⁻¹ s⁻¹
